T1: TIA1 WT (Homo sapiens, UniProt P31483 1-386)
T1 sequence: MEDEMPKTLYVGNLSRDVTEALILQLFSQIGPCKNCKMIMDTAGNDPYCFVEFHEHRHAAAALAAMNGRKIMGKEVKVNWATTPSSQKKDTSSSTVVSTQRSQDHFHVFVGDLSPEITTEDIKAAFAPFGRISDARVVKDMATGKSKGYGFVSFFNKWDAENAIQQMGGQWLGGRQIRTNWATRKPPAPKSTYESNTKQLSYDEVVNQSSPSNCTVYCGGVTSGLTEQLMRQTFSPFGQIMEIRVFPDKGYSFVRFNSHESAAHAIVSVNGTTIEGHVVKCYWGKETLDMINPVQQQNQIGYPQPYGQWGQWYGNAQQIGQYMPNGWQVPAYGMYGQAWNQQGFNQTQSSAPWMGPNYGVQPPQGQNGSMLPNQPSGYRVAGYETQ

B1: Bio-A90 (ssRNA)
RNA: GCCUUUCAUCUCUAACUGCGAAAAAAAAAAAAAAAAAAAAAAAAAAAAAAAAAAAAAAAAAAAAAAAAAAAAAAAAAAAAAAAAAAAAAAAAAAAAAAAAAAAAAAAAAA

Key:
Test in all cases: EMSA
PABPC1 K512R = PABPC1 K512R (Homo sapiens, UniProt P11940 1-636, K512R)
PABPC1 K512R, sequence (P11940 whole entry K512R): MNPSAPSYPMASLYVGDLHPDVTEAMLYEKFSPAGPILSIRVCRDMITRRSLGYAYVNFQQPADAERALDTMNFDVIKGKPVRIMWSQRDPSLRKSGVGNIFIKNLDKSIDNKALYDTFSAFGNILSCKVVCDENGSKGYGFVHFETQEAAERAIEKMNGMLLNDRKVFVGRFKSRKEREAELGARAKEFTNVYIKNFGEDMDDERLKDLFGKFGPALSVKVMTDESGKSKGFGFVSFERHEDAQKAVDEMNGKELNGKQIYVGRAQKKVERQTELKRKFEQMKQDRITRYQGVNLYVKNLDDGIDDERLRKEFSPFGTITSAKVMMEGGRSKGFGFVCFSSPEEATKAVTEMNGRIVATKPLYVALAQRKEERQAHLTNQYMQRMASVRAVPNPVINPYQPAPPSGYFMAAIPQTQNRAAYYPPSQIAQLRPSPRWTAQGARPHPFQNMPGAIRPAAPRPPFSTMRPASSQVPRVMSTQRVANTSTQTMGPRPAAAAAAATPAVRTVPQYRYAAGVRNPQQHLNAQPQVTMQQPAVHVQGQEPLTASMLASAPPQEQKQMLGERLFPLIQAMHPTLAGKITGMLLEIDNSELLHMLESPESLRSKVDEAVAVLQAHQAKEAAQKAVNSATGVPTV

PABPC1 WT = PABPC1 WT (Homo sapiens, UniProt P11940 1-636)
PABPC1 WT, sequence (P11940 whole entry): as the sequence (P11940 whole entry K512R) above, with R512K counted along it

TIA1 WT = target: T1, TIA1 WT

Binder	binding result (PABPC1 K512R)	binding result (PABPC1 WT)	binding result (TIA1 WT)
B1	binds	binds	–
CUUUUUUUUUUUUUUUUUUUUUUUUG (ssRNA) [Bio-polyU]	–	–	binds
